# Reference: patent publication US20240228986A1, “ENGINEERED CELLS, ENZYMES, AND METHODS FOR PRODUCING CANNABINOIDS” (priority 2021, published 2024)
# B1: GPS1.1-F11-MPT4.1: fusion of GPS1.1 and MPT4.1 via F11 linker, SEQ ID NO: 56 (protein)
# chain: MSKAKFESVFPRISEELVQLLRDEGLPQDAVQWFSDSLQYNCVGGKLNRGLSVVDTYQLLTGKKELDDEEYYRLALLGWLIELLQAFWLVSDDIMDESKTRRGQPCWYLKPKVGMIAIWDAFMLESGIYILLKKHFRQEKYYIDLVELFHDISFKTELGQLVDLLTAPEDEVDLNRFSLDKHSFIVRYKTAYYSFYLPVVLAMYVAGITNPKDLQQAMDVLIPLGEYFQVQDDYLDNFGDPEFIGKIGTDIQDNKCSWLVNKALQKATPEQRQILEDNYGVKDKSKELVIKKLYDDMKIEQDYLDYEEEVVGDIKKKIEQVDESRGFKKEVLNAFLAKIYKRQKGGAEAAAKEAAAKAGGSGGGSGGGGSGGSGGGGSGGGGSMSDNSIATKILNFGHTCWKLQRPYAVKGMISIACGLFGRELFNNRHLFSWGLMWKAFFALVPILSFNFFAAIMNQIYDVDIDRINKPDLPLVSGEMSIETAWILSIIVALTGLIVTIKLKSAPLFVFIYIFGIFAGFAYSVPPIRWKQYPFTNFLITISSHVGLAFTSYSATTSALGLPFVWRPAFSFIIAFMTVMGMTIAFAKDISDIEGDAKYGVSTVATKLGARNMTFVVSGVLLLNYLVSISIGIIWPQVFKSNIMILSHAILAFCLIFQTRELALANYASAPSRQFFEFIWLLYYAEYFVYVFI
# modifications: GPS1.1-F11-MPT4.1, geranyl diphosphate synthase, point mutant membrane-bound prenyltransferase fusion protein
# B2: GPS1.1-F11-PKC1.1-F11-MPT4: triple fusion of GPS1.1, PKC1.1 and MPT4 via F11 linkers, SEQ ID NO: 92 (protein)
# chain: MSKAKFESVFPRISEELVQLLRDEGLPQDAVQWFSDSLQYNCVGGKLNRGLSVVDTYQLLTGKKELDDEEYYRLALLGWLIELLQAFWLVSDDIMDESKTRRGQPCWYLKPKVGMIAIWDAFMLESGIYILLKKHFRQEKYYIDLVELFHDISFKTELGQLVDLLTAPEDEVDLNRFSLDKHSFIVRYKTAYYSFYLPVVLAMYVAGITNPKDLQQAMDVLIPLGEYFQVQDDYLDNFGDPEFIGKIGTDIQDNKCSWLVNKALQKATPEQRQILEDNYGVKDKSKELVIKKLYDDMKIEQDYLDYEEEVVGDIKKKIEQVDESRGFKKEVLNAFLAKIYKRQKGGAEAAAKEAAAKAGGSGGGSGGGGSGGSGGGGSGGGGSMAVKHLIVLKFKDEITEAQKEEFFKTFVNLVNIIPAMKDVYWGKDVTQKNKEEGYTHIVEVTFESVETIQDYIIHPAHVGFGDVYRSFWEKLLIFDYTPRKGGAEAAAKEAAAKAGGSGGGSGGGGSGGSGGGGSGGGGSMSDNSIATKILNFGHTCWKLQRPYVVKGMISIACGLFGRELFNNRHLFSWGLMWKAFFALVPILSFNFFAAIMNQIYDVDIDRINKPDLPLVSGEMSIETAWILSIIVALTGLIVTIKLKSAPLFVFIYIFGIFAGFAYSVPPIRWKQYPFTNFLITISSHVGLAFTSYSATTSALGLPFVWRPAFSFIIAFMTVMGMTIAFAKDISDIEGDAKYGVSTVATKLGARNMTFVVSGVLLLNYLVSISIGIIWPQVFKSNIMILSHAILAFCLIFQTRELALANYASAPSRQFFEFIWLLYYAEYFVYVFI
# modifications: GPS1.1-F11-PKC1.1-F11-MPT4, geranyl diphosphate synthase, polyketide cyclase, membrane-bound prenyltransferase fusion protein
# B3: GPS1.1-F11-MPT21: fusion of GPS1.1 and MPT21 via F11 linker, SEQ ID NO: 25 (protein)
# chain: MSKAKFESVFPRISEELVQLLRDEGLPQDAVQWFSDSLQYNCVGGKLNRGLSVVDTYQLLTGKKELDDEEYYRLALLGWLIELLQAFWLVSDDIMDESKTRRGQPCWYLKPKVGMIAIWDAFMLESGIYILLKKHFRQEKYYIDLVELFHDISFKTELGQLVDLLTAPEDEVDLNRFSLDKHSFIVRYKTAYYSFYLPVVLAMYVAGITNPKDLQQAMDVLIPLGEYFQVQDDYLDNFGDPEFIGKIGTDIQDNKCSWLVNKALQKATPEQRQILEDNYGVKDKSKELVIKKLYDDMKIEQDYLDYEEEVVGDIKKKIEQVDESRGFKKEVLNAFLAKIYKRQKGGAEAAAKEAAAKAGGSGGGSGGGGSGGSGGGGSGGGGSMSDNSIATKILNFGHTCWKLQRPYVVKGMISIACGLFGKELLHNTNLISWGLMWKAFFALVPILSFNFFAAIMNQIYDVDIDRINKPDLPLVSGEMSIETAWILSIIVALTGLIVTIKLKSAPLFVFIYIFGIFAGFAYSVPPIRWKQNPSTNFLITISSHVGLAFTSYYASRAALGLPFELRPSFTFLLAFMTVMGMTIAFAKDISDIEGDAKYGVSTVATKLGARNMTFVVSGVLLLNYVAAILAGIIWPQAFNSNVMLLSHAILAFCLIFQTRELALANYASAPSRQFFEFIWLLYYAEYFVYVFI
# modifications: GPS1.1-F11-MPT21, geranyl diphosphate synthase, recombinant membrane-bound prenyltransferase fusion protein
# Legend:
# Format in all cases: cell-based, Yarrowia
# [1] = tested on: olivetolic acid; experiment: MPT4.1 with and without GPS1.1 fusion vs MPT4 fusion, in vivo assay (Example 5); conditions: 3 mM olivetolic acid
# Procedure: As described below, plasmids pCL-SE-0337.MPT4.1 and pCL-SE-0753 were transformed into strain sCL-SE-0128. Multiple colonies per transformation were precultured for 24 h in YNB containing glucose (2%), casamino acids (0.5%), and MES (100 mM pH 6.5). Pre-culture was used to inoculate assay medium comprised of YNB containing glucose (6%), casamino acids (0.5%), MES (100 mM pH 6.5), and olivetolic acid (3 mM). Cultures were quenched with equal volume of ethanol after 48 h total growth and assayed for CBGA and FCBGA. Averages and standard deviations were calculated from replicates.
# (§1) Overnight YPD (10 g/L yeast extract, 20 g/L peptone, 2% dextrose) cultures were inoculated from glycerol stocks of the appropriate strain and grown at 30° C. with 250 rpm shaking. Once cultures had reached an OD600 of 4-6, cultures were centrifuged at 500×g for 5 min, supernatants were discarded, and cell pellets were resuspended in equal volume of water. Resuspended cells were centrifuged at 500×g for 5 min, supernatants were discarded, and cells were resuspended in a volume (75 μL×OD×Vculture) of transformation cocktail (45% PEG-400, 0.1 M LiAc, 0.1 M DTT, and 25 ug/100 μL SS Salmon Sperm DNA). For each transformation, >1 μg of plasmid DNA was added to 55 μL cells/transformation cocktail and vortexed for 2 s. Transformations were incubated at 39° C. for 1 h with 250 rpm shaking. Transformations were resuspended in 750 μL YPD with 1 M sorbitol and recovered at 30° C. overnight with 250 rpm shaking. The next day, transformations were centrifuged at 500×g for 5 min, supernatants were discarded, and cell pellets were resuspended in 750 YPD. Resuspended transformations were plated on YPD with appropriate selection or YNBD (6.71 g/L yeast nitrogen base+nitrogen, 0.5% casamino acids, 2% dextrose) agar plates and grown at 30° C. for 2 days. Individual colonies were patched onto YPD plates with appropriate selection or YNBD plates and grown at 30° C. overnight. Patches were used to inoculate 0.5 mL YPD with appropriate selection or YNBD precultures in 96 w blocks and grown at 30° C. for 24-48 h with 1000 rpm shaking. For assays, 0.5 mL YPD with appropriate selection or YNBD cultures containing substrate were inoculated with 2 μL from precultures and grown at 30° C. for 2-4 days with 1000 rpm shaking with 2% glucose added every 24 h. Assay cultures were quenched by addition of 0.5 mL ethanol with 0.2% formic acid and 0.5 mg/mL pentyl-benzoic acid. Precipitates were pelleted by centrifuging at 4600×g for 10 min and then 200 μL was transferred to fresh plates, sealed, and analyzed via HPLC.
# (§2) All samples were quenched with equal volume of EtOH containing 0.2 mg/mL internal standard (3,5-Diisopropyl-2-hydroxybenzoic acid CAS #2215-21-6) centrifuged, and clarified solutions were analyzed by HPLC-MS
# (§3) • Column: 2.1×50 mm COSMOCORE PBr (Nacalai USA, Inc.) • Mobile Phase: A; 0.1% formic acid in water, B; 0.1% formic acid in acetonitrile • Flow: 0.45 mL/min • Temp: % 50 Celsius • Gradient: 20%B at 0 min, 70%B at 2.3 min, 89% B at 4.2 min, 20% B at 4.3 min, 20%B at 6 min
# [2] = tested on: olivetolic acid; experiment: GPS-APT fusions, OA feed in vivo assay (Example 11)
# In short: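 Yeast strain sCL-SE-0128 carrying GPS1.1–APT73.77 fusion plasmids (N- or C-terminal, various linkers) was precultured 48 h, then grown in YNB/glucose/casamino acids/MES pH 6.5 with 2 mM olivetolic acid. After 48 h total growth, cultures were quenched with equal-volume ethanol and CBGA/FCBGA measured by HPLC-MS against internal standard.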
# [3] = tested on: olivetolic acid; experiment: GPS1.1 fusions of MPT21 mutants, OA feed (Example 8, Table 10); conditions: 3 mM olivetolic acid, 6% glucose, 48 h quench; strain sCL-SE-0128
# Procedure: as §1, §2, §3
# [4] = tested on: divarinic acid; experiment: GPS1.1 fusions of MPT21 mutants, DVA feed (Example 9, Table 12); conditions: 2 mM divarinic acid, 2% glucose, quenched after 48 h; strain sCL-SE-0128
# Procedure: as §1, §2, §3
# [5] = tested on: hexanoic acid; experiment: GPS-PKC-MPT fusions, hexanoic acid feed in vivo assay (Example 13)
# Procedure: Strain SB-00311 (HCS2, PKS1.1 and PKC1.1) was co-transformed with 1) a construct (pCL-SE-0274) for expression of HMGR and GPS1.1 and 2) a construct (pCL-SE-0406) for expression of a fusion protein that contains, from N- to C-terminus, GPS1.1 and MPT4 linked using the F11 linker sequence or a construct (pCL-SE-0474) for expression of a fusion protein that contains, from N- to C-terminus, GPS1.1, PKC1.1 and MPT4, each linked using the F11 linker sequence.
# Transformants were assessed for CBGA production from hexanoic acid. Assay cultures consisted of YNBD+CAA media with 2.5 mM hexanoic acid. After 24 h, an additional 5 mM hexanoic acid was added to each assay culture. Cultures were quenched after 48 h total growth.
# Overnight YPD (10 g/L yeast extract, 20 g/L peptone, 2% dextrose) cultures were inoculated from glycerol stocks of the appropriate strain and grown at 30° C. with 250 rpm shaking. Once cultures had reached an OD600 of 4-6, cultures were centrifuged at 500×g for 5 min, supernatants were discarded, and cell pellets were resuspended in equal volume of water. Resuspended cells were centrifuged at 500×g for 5 min, supernatants were discarded, and cells were resuspended in a volume (75 μL×OD×Vculture) of transformation cocktail (45% PEG-400, 0.1 M LiAc, 0.1 M DTT, and 25 ug/100 μL SS Salmon Sperm DNA). For each transformation, >1 μg of plasmid DNA was added to 55 μL cells/transformation cocktail and vortexed for 2 s. Transformations were incubated at 39° C. for 1 h with 250 rpm shaking. Transformations were resuspended in 750 μL YPD with 1 M sorbitol and recovered at 30° C. overnight with 250 rpm shaking. […] Precipitates were pelleted by centrifuging at 4600×g for 10 min and then 200 μL was transferred to fresh plates, sealed, and analyzed via HPLC.
# All samples were quenched with equal volume of EtOH containing 0.2 mg/mL internal standard (3,5-Diisopropyl-2-hydroxybenzoic acid CAS #2215-21-6) centrifuged, and clarified solutions were analyzed by HPLC-MS […]
# [6] = tested on: olivetolic acid; experiment: MPT fusions with GPS1.1 vs unfused MPTs, OA feed (Example 8, Table 9); conditions: 2 mM olivetolic acid, 48 h quench
# In short: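 Yeast strain sCL-SE-0128 carrying MPT or GPS1.1–MPT fusion plasmids, precultured 48 h in YNB/2% glucose/0.5% casamino acids/100 mM MES pH 6.5. Assay medium was the same plus 2 mM olivetolic acid, 30 °C. Cultures were ethanol-quenched at 48 h total growth, and CBGA and FCBGA were measured by HPLC-MS with internal standard; values are replicate means ± SD.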
# [7] = tested on: divarinic acid; experiment: MPT fusions with GPS1.1 vs unfused MPTs, DVA feed (Example 9, Table 11); conditions: 2 mM divarinic acid
# Procedure: As described below, plasmids pCL-SE-0406, pCL-SE-0664, pCL-SE-0663, pCL-SE-0662, pCL-SE-0380 (MPT4), pCL-SE-0337.MPT21, were transformed into strain sCL-SE-0128. Multiple colonies per transformation were precultured for 48 h in YNB containing glucose (2%), casamino acids (0.5%), and MES (100 mM pH 6.5). Pre-culture was used to inoculate assay medium comprised of YNB containing glucose (2%), casamino acids (0.5%), MES (100 mM pH 6.5), and divarinic acid (2 mM). Cultures were quenched after 48 h total growth and assayed for CBGVA and FCBGVA. Averages and standard deviations were calculated from replicates.
# as §1, §2, §3
# [8] = 6% glucose, 48 h quench, strain sCL-SE-0128
# [9] = olivetolic acid feed as in Example 8, 48 h quench, strain sCL-SE-0128
# [10] = 2% glucose, quenched after 48 h, strain sCL-SE-0128
Molecule,"CBGA [1, 8]","FCBGA [1, 8]","CBGA/FCBGA ([1]; 48 h quench, product ratio)","increase of the titer of CBGA ([1]; fusion vs unfused MPT4.1, 48 h)","CBGA [2, 9]","FCBGA [2, 9]","CBGA/FCBG ([2]; olivetolic acid feed, 48 h quench, product ratio)",CBGA [3],FCBGA [3],CBGVA [4],FCBGVA [4],"CBGA ([5]; hexanoic acid 2.5 mM plus 5 mM after 24 h, 48 h quench, strain SB-00311 + pCL-SE-0274, average of 44 or 34 transformants)","production of CBGA compared to the GPS1.1-MPT4 double fusion ([5]; in words, hexanoic acid feed)","CBGA ([6]; 2% glucose, strain sCL-SE-0128)","FCBGA ([6]; 2% glucose, strain sCL-SE-0128)",CBGA/FCBGA ([6]; product ratio),"CBGVA [7, 10]","FCBGVA [7, 10]","CBGVA/FCB ([7]; 48 h, product ratio)"
B1,425 ± 11 µM,34 ± 1 µM,12.6,67%,365 ± 22 µM,26 ± 1 µM,14.3,358 ± 0 µM,27 ± 0 µM,91 ± 6 µM,0 ± 0 µM,–,–,–,–,–,–,–,–
B2,–,–,–,–,–,–,–,–,–,–,–,77.4 ± 32.4 µM,improved production of CBGA,–,–,–,–,–,–
B3,–,–,–,–,–,–,–,276 ± 17 µM,89 ± 4 µM,58 ± 7 µM,6 ± 1 µM,–,–,156 ± 13 µM,52 ± 5 µM,3.0,28 ± 2 µM,4 ± 0 µM,7.2
